Several values for one entry are separate records, joined by “and”; a condition that tells them apart may be missing. Equal entries are not always repeated.
Tests used:
[1] = target: T1, BUNV-N nucleocapsid protein (Bunyamwera virus, UniProt P16495 1-233); assay: native nanoESI-MS; N:RNA 6:1, low population; 50 mM ammonium acetate, pH 6.8 (stated for RNA-free BUNV-N); 10 uM final N protein (monomer basis); temperature not given; settings: protein: recombinant; tags: His6-SUMO, removed
[2] = target: T2, SBV-N nucleocapsid protein (Schmallenberg virus, UniProt H2AM13 1-233); assay: native nanoESI-MS; N:RNA 4:1 and 5:1 (equal major), 6:1, 8:1; 50 mM ammonium acetate, pH 6.8 (stated for RNA-free BUNV-N); 10 uM final N protein (monomer basis); temperature not given; settings: protein: recombinant; tags: His6-SUMO, removed; chain copies: 4
T2 sequence: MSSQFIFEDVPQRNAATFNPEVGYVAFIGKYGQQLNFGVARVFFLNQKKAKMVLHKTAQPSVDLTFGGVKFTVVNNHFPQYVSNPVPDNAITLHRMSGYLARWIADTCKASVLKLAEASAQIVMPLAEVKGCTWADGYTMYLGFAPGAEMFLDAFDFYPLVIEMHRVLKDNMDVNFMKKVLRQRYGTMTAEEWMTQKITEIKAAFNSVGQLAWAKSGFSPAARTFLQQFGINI

[3] = target: the molecule itself; assay: native MS; nano-ESI-MS of RNA-free N protein (10 μM monomer) incubated with synthetic 24-mer RNA
[4] = target: the molecule itself; assay: native MS; nano-ESI-MS of RNA-free N protein (10 μM monomer) incubated with synthetic 12-mer RNA; 2:1 N/RNA molar ratio for BUNV-N
[5] = target: the molecule itself; assay: native MS; nano-ESI-MS of BUNV-N bound to endogenous E. coli RNA (as purified; traces also left after the RNA-removal step); ammonium acetate buffer pH 6.8
[6] = target: T1, BUNV-N nucleocapsid protein; assay: native nanoESI-MS; N:RNA 5:1; 50 mM ammonium acetate, pH 6.8 (stated for RNA-free BUNV-N); 10 uM final N protein (monomer basis); temperature not given; settings: protein: recombinant; tags: His6-SUMO, removed
[7] = target: T2, SBV-N nucleocapsid protein; assay: native nanoESI-MS; N:RNA 3:1, 4:1 (major), 4:2, 5:2; 50 mM ammonium acetate, pH 6.8 (stated for RNA-free BUNV-N); 10 uM final N protein (monomer basis); temperature not given; settings: protein: recombinant; tags: His6-SUMO, removed; chain copies: 4
[8] = target: the molecule itself; assay: native MS; nano-ESI-MS of RNA-free N protein (10 μM monomer) incubated with synthetic 48-mer RNA
[9] = target: the molecule itself; assay: native MS; nano-ESI-MS of RNA-free N protein (10 μM monomer) incubated with synthetic 60-mer RNA
[10] = target: T2, SBV-N nucleocapsid protein; assay: native nanoESI-MS, CID MS/MS; N:RNA 4:2, 5:2; 4:2 also in mixture with BUNV-N; 50 mM ammonium acetate, pH 6.8 (stated for RNA-free BUNV-N); 10 uM final N protein (monomer basis); temperature not given; settings: protein: recombinant; tags: His6-SUMO, removed; chain copies: 4
[11] = target: T1, BUNV-N nucleocapsid protein; assay: native nanoESI-MS, CID MS/MS; N:RNA 3:1, 4:2 (major), 5:2, 6:3; 4:2 also in mixture with SBV-N; 50 mM ammonium acetate, pH 6.8 (stated for RNA-free BUNV-N); 10 uM final N protein (monomer basis); temperature not given; settings: protein: recombinant; tags: His6-SUMO, removed
[12] = target: T2, SBV-N nucleocapsid protein; assay: native nanoESI-MS; N:RNA 4:4 (major), 8:8, 10:10, 12:12; 50 mM ammonium acetate, pH 6.8 (stated for RNA-free BUNV-N); 10 uM final N protein (monomer basis); temperature not given; settings: protein: recombinant; tags: His6-SUMO, removed; chain copies: 4
[13] = target: T1, BUNV-N nucleocapsid protein; assay: native nanoESI-MS; N:RNA 3:2, 3:3, 4:4 (3:3 and 4:4 major); mixed at 2:1; 50 mM ammonium acetate, pH 6.8 (stated for RNA-free BUNV-N); 10 uM final N protein (monomer basis); temperature not given; settings: protein: recombinant; tags: His6-SUMO, removed

B1: 60-mer RNA (ssRNA)
RNA: AGUAGUGUACUCCACACUACAAACUUGCUAUUGUUGAAAAUCGCUGUGCUAUUAAAUCCA
B1: binds [1]; binds [2].

B2: Bunyamwera virus nucleocapsid (N) protein (natural protein)
chain: MIELEFHDVAANTSSTFDPEVAYANFKRVHTTGLSYDHIRIFYIKGREIKTSLAKRSEWEVTLNLGGWKITVYNTNFPGNRNNPVPDDGLTLHRLSGFLARYLLEKMLKVSEPEKLIIKSKIINPLAEKNGITWNDGEEVYLSFFPGSEMFLGTFRFYPLAIGIYKVQRKEMEPKYLEKTMRQRYMGLEAATWTVSKLTEVQSALTVVSSLGWKKTNVSAAARDFLAKFGINM
notes: Nucleocapsid (N) protein of Bunyamwera virus (BUNV); As purified it carries E. coli RNA (tetramer with about 44 nt); the RNA-free form is obtained by high salt treatment; also called BUNV-N; BUNVN; source: tag removed; endogenous RNA removed with high ionic strength buffers where stated
With B2 the “stoichiometry N” value [3] was 5 and 6, the “stoichiometry N” value [4] was 3 and the “stoichiometry N” value [5] was 4.

AGUAGUGUACUCCACACUACAAACUUGCUAUUGUUGAAAAUCGCUGUG (ssRNA) [48-mer RNA]: binds [6]; binds [7].

B3: Schmallenberg virus nucleocapsid (N) protein (natural protein)
chain: MSSQFIFEDVPQRNAATFNPEVGYVAFIGKYGQQLNFGVARVFFLNQKKAKMVLHKTAQPSVDLTFGGVKFTVVNNHFPQYVSNPVPDNAITLHRMSGYLARWIADTCKASVLKLAEASAQIVMPLAEVKGCTWADGYTMYLGFAPGAEMFLDAFDFYPLVIEMHRVLKDNMDVNFMKKVLRQRYGTMTAEEWMTQKITEIKAAFNSVGQLAWAKSGFSPAARTFLQQFGINI
notes: Nucleocapsid (N) protein of Schmallenberg virus (SBV); measured monomer mass 26 269 Da; also called SBV-N; SBVN; source: tag removed; high salt-treated
For B3, the “stoichiometry N” value [3] was 5, the “stoichiometry N” value [8] was 3 and the “stoichiometry N” value [9] was 6. The “stoichiometry N” value [4] was 4 and 8 and 10 and 12.

AGUAGUGUACUCCACACUACAAAC (ssRNA) [24-mer RNA]: binds [10]; binds [11].

AGUAGUGUACUC (ssRNA) [12-mer RNA]: binds [12]; binds [13].
